T1: recombinant lamin A tail (residues 385–646 of human mature lamin A) (human, UniProt P02545 385-646)
T1 construct: lamin A, human, residues 385-646 of mature lamin A: flexible linker 385-429, Ig-fold 430-544, disordered 545-646; also called lamin A tails; LamA; not shown: His tag, C-terminal, kept
T1 sequence (looked up): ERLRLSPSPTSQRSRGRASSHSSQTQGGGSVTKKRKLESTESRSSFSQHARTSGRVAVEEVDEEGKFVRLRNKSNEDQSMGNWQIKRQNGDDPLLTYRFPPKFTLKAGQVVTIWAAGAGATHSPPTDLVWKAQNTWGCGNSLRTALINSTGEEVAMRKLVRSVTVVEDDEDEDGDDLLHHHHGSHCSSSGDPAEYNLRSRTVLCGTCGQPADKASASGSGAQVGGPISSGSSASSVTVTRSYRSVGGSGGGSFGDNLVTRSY

B1: Tmem38A peptide j13 (aa 36–55) (peptide)
peptide: YLKYEPGAVELSRRHPIASW
notes: Tmem38a, human, residues 36-55; source: synthetic peptide, on cellulose array
B2: Tmem38A peptide k16 (aa 197–216) (peptide)
peptide: FTLQQTRWLPVSKASLIFIF
notes: Tmem38a, human, residues 197-216; source: synthetic peptide, on cellulose array
B3: Perm1 peptide h5 (aa 441–460) (peptide)
peptide: SSGLVSTPVPRADAAGLAWP
notes: Perm1, human, residues 441-460; source: synthetic peptide, on cellulose array
B4: Perm1 peptide h16 (aa 529–548) (peptide)
peptide: QTATGAHGGPGAWEAVAVGP
notes: Perm1, human, residues 529-548; source: synthetic peptide, on cellulose array
B5: prelamin A peptide W14 (aa 450–469) (peptide)
peptide: KFVRLRNKSNEDQSMGNWQI
notes: prelamin A, human, residues 450-469 (Ig-fold); source: synthetic peptide, on cellulose array
B6: AldoA peptide r19 (aa 302–321) (peptide)
peptide: YGRALQASALKAWGGKKENL
notes: AldoA, human, residues 302-321; source: synthetic peptide, on cellulose array
B7: Tmem38A peptide k10 (aa 155–174) (peptide)
peptide: KGSGVALMSNFEQLLRGVWK
notes: Tmem38a, human, residues 155-174; source: synthetic peptide, on cellulose array
B8: Lmcd1 peptide v17 (aa 309–328) (peptide)
peptide: SGCDEIIFAEDYQRVEDLAW
notes: Lmcd1, human, residues 309-328 (second LIM domain); source: synthetic peptide, on cellulose array
B9: AldoA peptide r20 (aa 309–328) (peptide)
peptide: SALKAWGGKKENLKAAQEEY
notes: AldoA, human, residues 309-328; source: synthetic peptide, on cellulose array
B10: prelamin A peptide W19 (aa 485–504) (peptide)
peptide: PKFTLKAGQVVTIWAAGAGA
notes: prelamin A, human, residues 485-504 (Ig-fold); source: synthetic peptide, on cellulose array
B11: AldoA peptide r18 (aa 295–314) (peptide)
peptide: PWALTFSYGRALQASALKAW
notes: AldoA, human, residues 295-314; source: synthetic peptide, on cellulose array
B12: Perm1 peptide j2 (aa 737–756) (peptide)
peptide: FVAFATWAVRTSDPHTPDAW
notes: Perm1, human, residues 737-756; source: synthetic peptide, on cellulose array
B13: prelamin A peptide X1 (aa 499–518) (peptide)
peptide: AAGAGATHSPPTDLVWKAQN
notes: prelamin A, human, residues 499-518 (Ig-fold); source: synthetic peptide, on cellulose array
B14: Perm1 peptide i4 (aa 593–612) (peptide)
peptide: EENEEAEAAAAGQDPAGVQW
notes: Perm1, human, residues 593-612; source: synthetic peptide, on cellulose array

biological target: T1, recombinant lamin A tail (residues …); experiment: peptide or protein array; synthetic 20-mer peptides (7-residue offset) on cellulose; probed 3 h at room temperature with 190 nM His-tagged lamin A tail in casein blocking solution (TBS-T, sucrose, pH 7.0); bound lamin detected with anti-lamin A/C clone 14 and AP-conjugated secondary antibody; two experiments, each with an antibodies-only control; settings: both partners purified

Binding result, binds:
B1, B2, B3, B4, B5, B6, B7, B8, B9, B10, B11, B12, B13, B14

— article PMC10626543, “Native lamin A/C proteomes and novel partners from heart and skeletal muscle in a mouse chronic inflammation model of human frailty” (Frontiers in Cell and Developmental Biology, 2023)
